According to the supplement of paper PMC7877785:
± gives the uncertainty stated by the source.

Assay: self-splicing fitness, log relative to wild type (ln ratio); higher = more splicing; Tetrahymena group I intron in knt gene, E. coli kanamycin selection, DiMSum; sequences stand for … in CUCUCU…GGAGGGAAAAGUUAUCAGGCAUGCACCUGGUAGCUAGUCUUUAAACCAAUAGAUUGCAUCGGUUUAAAAGGCAAGACCGUCAAAUUGCGGGAAAGGGGUCAACAGCCGUUCAGUACCAAGUCUCAGGGGAAACUUUGAGAUGGCCUUGCAAAGGGUAUGGUAAUAAGCUGACGGACAUGGUCCUAACCACGCAGCCAAGUCCUAAGUCAACAGAUCUUCUGUUGAUAUGGAUGCAGUUCACAGACUAAAUGUCGGUCGGGGAAGAUGUAUUCUUCUCAUAAGAUAUAGUCGGACCUCUCCUUAAUGGGAGCUAGCGGAUGAAGUGAUGCAACACUGGAGCCGCUGGGAACUAAUUUGUAUGCGAAAGUAUAUUGAUUAGUUUUGGAGUACUCGUGGUCG
In short: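 DiMSum derived fitness as the error-weighted combination of fold changes across replicates, kanamycin versus no kanamycin, normalised to wild type. E. coli BL21(DE3) held the library, which randomised all eight P1ex-region intron nucleotides within the knt kanamycin-resistance gene on pET-22b(+). Six replicate transformations grew overnight at 37°C or 30°C on LB agar with or without 25 μg/mL kanamycin, also containing 100 μg/mL carbenicillin, 50 μM IPTG and 0.2% rhamnose, and pooled colonies were amplicon-sequenced on an Illumina HiSeq 2500.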

Row | Sequence | self-splicing fitness (ln) (30 °C) | self-splicing fitness (ln) (37 °C)
1 | GAAUAGCAAUAUUACGGGCG | -1.16 ± 0.078 | -0.509 ± 0.1
2 | UGGAAGCAAUAUUACGGUCA | -0.00492 ± 0.13 | 0.828 ± 0.15
3 | ACGAAGCAAUAUUACGUAGG | -2.12 ± 0.099 | -1.43 ± 0.15
4 | UGCCAGCAAUAUUACGGAUC | -3.04 ± 0.22 | -1.13 ± 0.17
5 | AGUUAGCAAUAUUACGCAUA | -1.15 ± 0.19 | -0.764 ± 0.29
6 | CCGGAGCAAUAUUACGUAAG | -0.00724 ± 0.087 | 0.176 ± 0.13
7 | UUAAAGCAAUAUUACGGUUU | -2.12 ± 0.075 | -1.22 ± 0.097
8 | GCCGAGCAAUAUUACGAUUC | -1.3 ± 0.13 | 0.294 ± 0.17
9 | GGGUAGCAAUAUUACGACUG | 0.0705 ± 0.13 | 0.222 ± 0.18
10 | GCCCAGCAAUAUUACGUCCU | -1.19 ± 0.11 | -0.722 ± 0.17
11 | ACGGAGCAAUAUUACGCUAU | -3.81 ± 0.23 | -2.1 ± 0.19
12 | AGGGAGCAAUAUUACGUGGA | -1.45 ± 0.14 | -2.81 ± 0.26
13 | GACAAGCAAUAUUACGUUGC | -3.63 ± 0.14 | -2.31 ± 0.16
14 | GAAUAGCAAUAUUACGCUAG | -2.22 ± 0.16 | -0.535 ± 0.14
15 | GCGCAGCAAUAUUACGCUGU | -3.56 ± 0.23 | -2.86 ± 0.34
16 | AAAGAGCAAUAUUACGCGGU | -3.49 ± 0.18 | -1.49 ± 0.16
17 | GCUGAGCAAUAUUACGCACU | -1.78 ± 0.17 | -0.125 ± 0.2
18 | ACGCAGCAAUAUUACGAGGG | -3.71 ± 0.18 | -2.77 ± 0.21
19 | GUGAAGCAAUAUUACGCAUA | -0.646 ± 0.15 | -0.0533 ± 0.17
20 | GUAUAGCAAUAUUACGCUAG | -2.46 ± 0.43 | -0.609 ± 0.3
21 | GAACAGCAAUAUUACGAGAA | -3.45 ± 0.25 | -1.44 ± 0.17
22 | GGACAGCAAUAUUACGCAAC | -1.68 ± 0.15 | -0.445 ± 0.18
23 | AGAGAGCAAUAUUACGGUCC | -2.21 ± 0.3 | -0.974 ± 0.46
24 | UGCAAGCAAUAUUACGCGAC | -3.46 ± 0.19 | -2.65 ± 0.23
25 | GUCAAGCAAUAUUACGGUAA | -1.28 ± 0.18 | -0.000783 ± 0.17
26 | GCUAAGCAAUAUUACGCAUC | -0.687 ± 0.13 | -1.06 ± 0.21

Row | Sequence | self-splicing fitness (ln) (30 °C) | self-splicing fitness (ln) (37 °C)
27 | UAGAAGCAAUAUUACGUCUG | -1.12 ± 0.064 | -0.959 ± 0.076
28 | AUAAAGCAAUAUUACGUGUG | -1.55 ± 0.061 | -0.947 ± 0.073
29 | UCUUAGCAAUAUUACGUCAG | -1.01 ± 0.16 | -1.28 ± 0.2
30 | GGAUAGCAAUAUUACGGCGC | 0.356 ± 0.34 | 0.121 ± 0.33
31 | AGUAAGCAAUAUUACGGCAA | -0.915 ± 0.11 | -0.179 ± 0.096
32 | GAGUAGCAAUAUUACGUCAG | -2.86 ± 0.17 | -2.24 ± 0.34
33 | GGGUAGCAAUAUUACGACUU | -1.03 ± 0.13 | 0.345 ± 0.16
34 | GUAUAGCAAUAUUACGCUUG | -1.72 ± 0.16 | -1.41 ± 0.26
35 | UUAGAGCAAUAUUACGCCGA | -0.286 ± 0.14 | 0.255 ± 0.18
36 | CGAUAGCAAUAUUACGUAGU | -3.93 ± 0.18 | -1.06 ± 0.1
37 | CUAAAGCAAUAUUACGUGAC | -1.12 ± 0.051 | -0.411 ± 0.078
38 | AAUGAGCAAUAUUACGGAAA | -2.99 ± 0.48 | -1.86 ± 0.31
39 | GGAUAGCAAUAUUACGUGGC | -2.56 ± 0.25 | 
40 | CCCAAGCAAUAUUACGCACU | -3.57 ± 0.19 | -2.72 ± 0.25
41 | CGAUAGCAAUAUUACGCGAA | -2.95 ± 0.21 | -1.92 ± 0.21
42 | UUACAGCAAUAUUACGCCAC |  | -2.7 ± 0.43
43 | UAUUAGCAAUAUUACGAAAG | -2.42 ± 0.37 | 
44 | UGGGAGCAAUAUUACGUUGU | -3.01 ± 0.23 | -2.2 ± 0.34
45 | GCUUAGCAAUAUUACGCAAA | -2.95 ± 0.27 | -1.51 ± 0.2
46 | CAGCAGCAAUAUUACGGUUA | -0.417 ± 0.06 | -0.163 ± 0.059
47 | UGGUAGCAAUAUUACGAAUA | -0.911 ± 0.17 | -1.17 ± 0.16
48 | GCACAGCAAUAUUACGUAAG | -1.38 ± 0.06 | -0.717 ± 0.079
49 | GAUAAGCAAUAUUACGAUUG | -2.59 ± 0.11 | -1.82 ± 0.18
50 | GCGAAGCAAUAUUACGAGGU | -2.98 ± 0.2 | -2.76 ± 0.33
51 | CUGUAGCAAUAUUACGCUCA | -2.22 ± 0.22 | -1.95 ± 0.23
52 | CUGUAGCAAUAUUACGGAAA | -0.916 ± 0.34 | 

Row | Sequence | self-splicing fitness (ln) (30 °C) | self-splicing fitness (ln) (37 °C)
53 | AUCCAGCAAUAUUACGAGGA | -2.21 ± 0.17 | -1.49 ± 0.17
54 | CGCCAGCAAUAUUACGGAGU | -3.79 ± 0.12 | -2.7 ± 0.13
55 | UAAUAGCAAUAUUACGGCUU | -0.901 ± 0.096 | -0.115 ± 0.13
56 | CUCCAGCAAUAUUACGUAUC | -3.01 ± 0.16 | -2.73 ± 0.23
57 | CGCGAGCAAUAUUACGGACA |  | -0.573 ± 0.34
58 | GAUAAGCAAUAUUACGUCAU | -2.38 ± 0.086 | -1.62 ± 0.095
59 | ACCAAGCAAUAUUACGAGCA | -2.53 ± 0.12 | -0.958 ± 0.099
60 | UAAAAGCAAUAUUACGUUCA | -0.437 ± 0.083 | -0.259 ± 0.091
61 | UCUAAGCAAUAUUACGAGGA | -3.5 ± 0.4 | -2.72 ± 0.44
62 | GUUCAGCAAUAUUACGAAAA | -0.216 ± 0.13 | 0.45 ± 0.15
63 | AUCCAGCAAUAUUACGCCUC | -1.53 ± 0.089 | -1.06 ± 0.14
64 | GUGAAGCAAUAUUACGACGA | 0.184 ± 0.15 | 0.158 ± 0.22
65 | GAACAGCAAUAUUACGAAGG | -2.59 ± 0.17 | -3.26 ± 0.28
66 | GAUUAGCAAUAUUACGAACC | -0.528 ± 0.24 | -0.802 ± 0.37
67 | UAUCAGCAAUAUUACGCCGA | -1.32 ± 0.12 | -0.34 ± 0.18
68 | GUCGAGCAAUAUUACGUUAG | -2.95 ± 0.27 | -1.2 ± 0.2
69 | GGGGAGCAAUAUUACGCGUA | -1.53 ± 0.38 | -1.13 ± 0.3
70 | CAGGAGCAAUAUUACGCGAG | -2.59 ± 0.23 | -1.59 ± 0.16
71 | UUACAGCAAUAUUACGAUGC | -3.18 ± 0.27 | -2.95 ± 0.36
72 | AACUAGCAAUAUUACGCCCG | -1.11 ± 0.18 | -0.346 ± 0.23
73 | UUUUAGCAAUAUUACGGGAU | -3.93 ± 0.32 | -1.48 ± 0.17
74 | AUUUAGCAAUAUUACGUAGC | -3 ± 0.23 | -1.64 ± 0.25
75 | ACCGAGCAAUAUUACGGUAG | -3.75 ± 0.23 | -2.73 ± 0.24
76 | AUCCAGCAAUAUUACGCCAU | -3.28 ± 0.21 | -1.27 ± 0.14
